Results taken from US20200010523A1 (INSTITUTE FOR CANCER RESEARCH, published 2020).

Molecular target: T1, human Müllerian-inhibiting substance type II receptor (MISIIR) (human, UniProt Q16671 18-573)
T1 sequence (looked up): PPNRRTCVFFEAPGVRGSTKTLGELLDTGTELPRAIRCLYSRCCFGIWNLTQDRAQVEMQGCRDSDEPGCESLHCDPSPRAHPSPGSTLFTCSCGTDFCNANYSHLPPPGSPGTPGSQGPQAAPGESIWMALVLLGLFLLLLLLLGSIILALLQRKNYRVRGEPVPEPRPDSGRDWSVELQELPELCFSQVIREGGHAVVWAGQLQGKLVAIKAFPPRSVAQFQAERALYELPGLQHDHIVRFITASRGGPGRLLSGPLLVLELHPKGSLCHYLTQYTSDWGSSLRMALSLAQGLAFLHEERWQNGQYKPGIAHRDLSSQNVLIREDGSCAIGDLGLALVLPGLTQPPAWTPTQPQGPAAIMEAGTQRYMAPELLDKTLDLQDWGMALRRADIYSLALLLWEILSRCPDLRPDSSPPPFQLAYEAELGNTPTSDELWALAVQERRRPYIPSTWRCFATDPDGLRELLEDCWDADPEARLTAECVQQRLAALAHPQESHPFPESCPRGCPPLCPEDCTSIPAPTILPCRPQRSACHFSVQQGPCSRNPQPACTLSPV
Test: cell-based or functional assay

expression of a luciferase reporter gene over background levels, 10 nM, 3-day assay, P19 reporter cell line: ~10 fold
B1: Müllerian-inhibiting substance (MIS) (ligand)
chain: SAGATAADGPCALRELSVDLRAERSVLIPETYQANNCQGVCGWPQSDRNPRYGNHVVLLLKMQVRGAALARPPCCVPTAYAGKLLISLSEERISAHHVPNMVATECGCR
